Experimental findings from patent US6599718B1, “Growth hormone secretagogue related receptors and nucleic acids” (priority 1998, dated 2003) are described below.

Test [1] concerns the target human growth hormone secretagogue related receptor (GHSR-R) (human) (UniProt Q9HB89). The test can be described thus: cell-based or functional assay.
Test [2] deals with other G-protein coupled receptors. The test can be described thus: Aequorin assay, cells transfected with other G-protein coupled receptors in the same vector. Format: cell-based. The note with it: other GPCRs cloned into the same vector.
For test [3], the target named is T1, GHSR-R (Homo sapiens, UniProt Q9HB89).
T1 construct: expressed in transfected cells
T1 sequence (Q9HB89 24-426 limits assumed): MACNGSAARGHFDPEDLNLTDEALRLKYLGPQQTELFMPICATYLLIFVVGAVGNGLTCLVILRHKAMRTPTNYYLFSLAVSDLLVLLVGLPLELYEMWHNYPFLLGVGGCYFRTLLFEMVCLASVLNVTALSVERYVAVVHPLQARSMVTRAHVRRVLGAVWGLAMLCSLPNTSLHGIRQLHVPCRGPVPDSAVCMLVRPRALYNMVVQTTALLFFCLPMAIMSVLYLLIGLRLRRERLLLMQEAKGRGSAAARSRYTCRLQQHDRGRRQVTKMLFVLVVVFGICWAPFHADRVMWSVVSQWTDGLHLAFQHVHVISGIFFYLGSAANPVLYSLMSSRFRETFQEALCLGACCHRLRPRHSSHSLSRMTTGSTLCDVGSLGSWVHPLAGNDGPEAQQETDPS
The test can be described thus: β-lactamase assay in CHO-NFAT-bla cells stably expressing GHSR-R. Format: cell-based. As to conditions: triplicates, read-out: EC50 of NMU for GHSR-R. How it is done: β-lactamase assays were carried out as described previously; Zlokarnik et al., 1998, Science 279:84-88. CH.3xNFAT-bla cells (Aurora Biosciences, San Diego, Calif., USA) stably expressing GHSR-R were maintained at 37° C./5% CO2 in DMEM+10% fetal bovine serum (GIBCO-BRL, Gaithersburg, Md., USA), 1 mM sodium pyruvate, 1 mM non-essential amino acid, 55 μM 2-mecaptoethanol, 250 μg/ml zeocin, 5.0 μg/ml puromycin. Cells were seeded at 7,000 cells/well in 96-well clear bottom black-walled plates two days before assay.
The day the assay was performed, growth media was removed from the cells and replaced with 0.05 mL/well of phenol red-free Opti-MEM (GIBCO-BRL, Gaithersburg, Md., USA). Neuromedin U was diluted in Opti-MEM using 5-fold serial dilutions, and added into assay plates in triplicates at 0.05 ml/well. The plates were incubated at 37° C./5% CO2 for 4 hours. […]
Fluorescence was measured at emission wave length of 460 nM and 535 nM using an excitation wave length of 405 nM in a Tecan SpectraFluor Plus fluorescence microplate reader (Tecan Austria, Saltzburg, Austria). The ratio of fluorescence between 460 nM and 535 nM was calculated and plotted using the software GraphPad Prism Version 3.0 (GraphPad Software, Inc., San Diego, Calif., USA).

Test [4] deals with Male rats (Charles River Sprague Dawley). Description: Overnight food intake after ICV (lateral ventricle) injection in rats. Format: in vivo, rat. The note with it: 10 μg ICV, relative to aCSF vehicle, P<0.01, n=6. How it is done:
Animals and Diet: Male rats (Charles River Sprague Dawley) weighing 250-350 g were maintained in a temperature and humidity controlled facility with a 12 hour light/dark cycle (4:00 AM lights on). Rats were fed standard rodent ground chow (Purina#7012). Fresh diet was provided daily. Both food and water were supplied ad libitum throughout both the pre- and post-surgery periods.
ICV cannulation: Rats under ketamine/xylazine anesthesia, were stereotaxically implanted in the lateral ventricle with a 26G guide cannula. The guide cannula (Plastics One Roanoke,Va.) was secured with three set screws and dental cement. A dummy internal cannula was placed into the guide cannula to maintain cannula patency. Rats were individually housed in Nalgene metabolism cages and allowed to recover a minimum of seven days before injection with test compounds.
Acclimation: Beginning the day after surgery, each rat was acclimated to the handling and injection procedure, as well as, the feeding regimen. […] Food intake was measured two hours later and the following morning. […]
Confirmation of cannula placement: Once the rats were fully recovered from surgery, guide cannula placement was confirmed by evaluating the food intake induced by the injection of 5 μg of hNPY (Peninsula Laboratories, Belmont, Calif.) after a one hour satiation period. Two hour post-injection food intake was recorded for each rat. […]

For test [5], the target named is T2, human growth hormone secretagogue related receptor (GHSR-R) (human, UniProt Q9HB89 24-426).
T2 sequence: T1 sequence (Q9HB89 24-426 limits assumed)
Description: cell-based or functional assay.

Test [6] concerns the target T2, human growth hormone secretagogue …. Description: radioligand competition on membranes of HEK293 cells stably expressing human GHSR-R (summary of Example 10). As for the experimental part:
(§1) All procedures were conducted on ice. Cell pellets were homogenized in a tissue grinder with a PTFE pestle (25 strokes). Crude cell membranes were then isolated by centrifugation of the cell lysate at 13,000×g for 30 minutes. Membrane pellets were resuspended at a protein concentration of 2.8 mg/ml in 50 mM Tris-HCl, pH 7.4, 5 mM MgCl2.
(§2) After incubation for 1 hour at room temperature, binding reactions were filtered through GC/C filters (Whatman; presoaked for 1 hour in 1% polyethylenimine) on a 48-well cell harvester (Brandel), washed 3×3 ml with ice-cold 50 mM Tris-HCl, pH 7.4 buffer with 10 mM MgCl2. Radioactivity on the filters was quantitated by gamma counting.
(Displacement assays read how much labelled ligand stays bound in the presence of the test substance.)

The target is the same in test [7]. The test can be described thus: radioligand competition against 0.1 nM 125I-labeled rat NMU on membranes of HEK-293/aeq17 cells stably expressing human GHSR-R, filtration. How it is done:
as §1, §2

Ends that are not written are not given here.

Consider “porcine neuromedin U-8 (porcine NMU-8) (from UniProt P34964 158-165) (peptide)”, for which, in test [1], the EC50, FLIPR intracellular Ca2+ assay, COS-7 cells transiently transfected with GHSR-R is 45 nM and the EC50, aequorin bioluminescence assay (Ca2+ mobilization), HEK293aeq/17 cells stably expressing GHSR-R turned out to be 2.1 nM.

Turning to “neuromedin U (YKVNEYQGPVAPSGGFFLFRPRN; ends and bridges not checked; UniProt P12760 144-166, looked up) [NMU, neuropeptide neuromedin U; rat peptide (Phoenix Pharmaceuticals) in the food intake study]”, the “response to NMU in cells expressing other G-protein coupled receptors” value in test [2] is listed as “did not show any response”. Further, the EC50 (usually the concentration that produces a half-maximal response) in test [3] is approximately 0.075 nM. Besides, in test [4], the “suppression of food intake” value worked out at 59%.

In test [1], “neuromedin U (NMU), species and length not stated (peptide)” came in with an EC50, beta-lactamase reporter assay in CHO-NFAT-bla cells of 0.075 nM and an EC50, beta-lactamase reporter assay in HEK293CRE-bla cells of 3 nM.

B1: rat neuromedin U-23 (rat NMU-23) (peptide, UniProt P12760 144-166, looked up)
peptide: YKVNEYQGPVAPSGGFFLFRPRN-NH2
notes: mature; also called unlabeled rat neuromedin U-25; Neuromedin U-25 (rat)
Regarding B1, in test [5], the “EC50, FLIPR intracellular Ca2+ assay, COS-7 cells transiently transfected with GHSR-R” value amounted to 55 nM and the “EC50, aequorin bioluminescence assay (Ca2+ mobilization), HEK293aeq/17 cells stably expressing GHSR-R” value amounted to 14.1 nM. Besides, the IC50 – broadly, the concentration at which inhibition is half-maximal – in test [6] was 3 nM. The same molecule came in with an IC50 in test [7] of 3.3 nM.
